Laboratory results: patent US20240150440A1 (LUMEN BIOSCIENCE, published 2024)

How the values were obtained:
[1] = biological target: T1, SARS-CoV-2 spike protein on pseudotyped lentivirus (Wuhan Reference Pseudovirus) (SARS-CoV-2, UniProt P0DTC2 14-1273); assay: cell-based or functional assay
[2] = biological target: T2, recombinant SARS-CoV-2 RBD with C-terminal AviTag (SARS-CoV-2, UniProt P0DTC2 319-541); assay: BLI, biotinylated RBD on streptavidin biosensors [Cont. 3]
[3] = biological target: T2, recombinant SARS-CoV-2 RBD with …; assay: BLI, biotinylated RBD on streptavidin biosensors; OR: over-range [Cont. 3]
[4] = biological target: T2, recombinant SARS-CoV-2 RBD with …; assay: ELISA, competition with coated ACE2-Fc for RBD [Cont. 3]
[5] = biological target: T2, recombinant SARS-CoV-2 RBD with …; assay: ELISA, competition with coated ACE2-Fc for RBD [Cont. 2]
[6] = biological target: T2, recombinant SARS-CoV-2 RBD with …; assay: BLI, biotinylated RBD on streptavidin biosensors [Cont. 2]
[7] = biological target: T2, recombinant SARS-CoV-2 RBD with …; assay: BLI, biotinylated RBD on streptavidin biosensors; BLD: below limit of detection
[8] = biological target: T2, recombinant SARS-CoV-2 RBD with …; assay: ELISA, competition with coated human ACE2-FC for RBD-AviTag
[9] = biological target: T2, recombinant SARS-CoV-2 RBD with …; assay: ELISA, competition with coated ACE2-Fc for RBD
[10] = biological target: T1, SARS-CoV-2 spike protein on pseudotyped …; assay: cell-based or functional assay; remark: listed apart in the source
[11] = biological target: T2, recombinant SARS-CoV-2 RBD with …; assay: BLI, biotinylated RBD on streptavidin biosensors, global 1:1 fit
[12] = biological target: T2, recombinant SARS-CoV-2 RBD with …; assay: BLI, biotinylated RBD on streptavidin biosensors

B1: PP826 MBP-R5C-A2-H6 (VHH)
VHH: QVQLVESGGGLVQPGGSLRLSCAASGDIFSKNAMHWVRQAPGKQREFVAGIYSDGSSLYADSVKGRFTISRDNAKNTVYLQMNSLKPEDTAVYYCAALDYSARYRTWGQGTQVTVSS
notes: Form: Monomer
[1]
  infectivity % under 10 ug/mL VHH treatment: 70.6%
[2]
  Kd: 420 nM

B2: PP828 MBP-R5C-B2-H6 (VHH)
VHH: QVQLVESGGGLVQPGGSLRLSCAASGSIFSLNWVHWFRQAPGKSREGVASINSGGHADYSDSVKGRFTISRDNAKNTVYLQMNSLKPEDTAVYYCAAGPYGAYNFNSWGQGTQVTVSS
notes: Form: Monomer
[1]
  infectivity % under 10 ug/mL VHH treatment: 73.4%
[3]
  Kd: ~1370 nM
[4]
  IC50: 373 nM

B3: PP822 MBP-R5A-E5-H6 (VHH)
VHH: QVQLVESGGGLVQPGGSLRLSCAASGYDFDILRMAWFRQAPGKEREMVAAITSAESVNYEDSVKGRFTISRDNAKNTVYLQMNSLKPEDTAVYYCATYDYTDDYGYASWGQGTQVTVSS
notes: Form: Monomer
[1]
  infectivity % under 10 ug/mL VHH treatment: 71.6%
[5]
  IC50: 183 nM
[6]
  Kd: 6.97 nM

B4: PP819 MBP-R5A-C5-H6 (VHH)
VHH: QVQLVESGGGLVQPGGSLRLSCAASGDIFSINALHWFRQAPGKQREEVAAITSGGSTGYADSVKGRFTISRDNAKNTVYLQMNSLKPEDTAVYYCAAQQARGGLDSDYWGQGTQVTVSS
notes: Form: Monomer
[1]
  infectivity % under 10 ug/mL VHH treatment: 54.1%
[5]
  IC50: 71.9 nM
[6]
  Kd: 42.1 nM

B5: PP802 MBP-R2A-C5-H6 (VHH)
VHH: QVQLVESGGGLVQPGGSLRLSCAASGTWGNIQYLSWFRQAPGKRREFVAAITPNNGTNYADSVKGRFTISRDNAKNTVYLQMNSLKPEDTAVYYCTAVLWYTTKEGPYDYWGQGTQVTVSS
notes: Form: Monomer
[1]
  infectivity % under 10 ug/mL VHH treatment: 87.8%
[7]
  Kd: ~23000 nM

B6: MBP-5HVZ-R2A-C5-H6 (VHH, not shown: large carriers; small tags and cut ends)
VHH: B5 VHH
[7]
  Kd: ~3250 nM

B7: dimeric VHH (VHH-5HVZ-MBP) R2A-F3 (VHH)
VHH: QVQLVESGGGLVQPGGSLRLSCAASGSITSINWMHWFRQAPGKDREGVASISQTGRGSYADSVKGRFTISRDNAKNTVYLQMNSLKPEDTAVYYCAAASRTGTPYNYWGQGTQVTVSS
[8]
  IC50 (read off the curve): ~2 nM
[9]
  IC50: 1.6 nM
[10]
  Pseudovirus inhibition IC50: 272 nM
[11]
  Kd: 5.7 nM
[12]
  Kd: 5.66 nM
